The test addresses T1, rat GLP-1 receptor (CHO cells transfected with the rat GLP-1 receptor) (rat, UniProt P32301 22-463).
T1 sequence (looked up): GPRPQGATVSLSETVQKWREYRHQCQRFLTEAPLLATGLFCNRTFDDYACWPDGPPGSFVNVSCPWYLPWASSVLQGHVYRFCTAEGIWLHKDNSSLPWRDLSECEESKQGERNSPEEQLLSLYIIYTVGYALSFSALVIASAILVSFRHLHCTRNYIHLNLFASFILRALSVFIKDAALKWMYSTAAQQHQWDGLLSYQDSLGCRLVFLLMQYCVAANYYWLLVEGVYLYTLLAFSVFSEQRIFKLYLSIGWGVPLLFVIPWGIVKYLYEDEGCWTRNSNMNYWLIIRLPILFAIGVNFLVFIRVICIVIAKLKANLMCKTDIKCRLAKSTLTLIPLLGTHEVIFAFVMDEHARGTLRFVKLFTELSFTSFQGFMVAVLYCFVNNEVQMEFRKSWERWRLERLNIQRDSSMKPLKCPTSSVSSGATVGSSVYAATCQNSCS
In words: cell-based or functional assay.

B1: pREX0558: GLP-1 (7-37;A8G;G22E;K34A) fused to the N-terminus of transferrin with PEAPTD and IgG hinge linkers (other)
chain: HGEGTFTSDVSSYLEEQAAKEFIAWLVAGRGPEAPTDVEPKSSDKTHTSPPSPAPELLGGPSVPDKTVRWCAVSEHEATKCQSFRDHMKSVIPSDGPSVACVKKASYLDCIRAIAANEADAVTLDAGLVYDAYLAPNNLKPVVAEFYGSKEDPQTFYYAVAVVKKDSGFQMNQLRGKKSCHTGLGRSAGWNIPIGLLYCDLPEPRKPLEKAVANFFSGSCAPCADGTDFPQLCQLCPGCGCSTLNQYFGYSGAFKCLKDGAGDVAFVKHSTIFENLANKADRDQYELLCLDNTRKPVDEYKDCHLAQVPSHTVVARSMGGKEDLIWELLNQAQEHFGKDKSKEFQLFSSPHGKDLLFKDSAHGFLKVPPRMDAKMYLGYEYVTAIRNLREGTCPEAPTDECKPVKWCALSHHERLKCDEWSVNSVGKIECVSAETTEDCIAKIMNGEADAMSLDGGFVYIAGKCGLVPVLAENYNKADNCEDTPEAGYFAVAVVKKSASDLTWDNLKGKKSCHTAVGRTAGWNIPMGLLYNKINHCRFDEFFSEGCAPGSKKDSSLCKLCMGSGLNLCEPNNKEGYYGYTGAFRCLVEKGDVAFVKHQTVPQNTGGKNPDPWAKNLNEKDYELLCLDGTRKPVEEYANCHLARAPNHAVVTRKDKEACVHKILRQQQHLFGSNVADCSGNFCLFRSETKDLLFRDDTVCLAKLHDRNTYEKYLGEEYVKAVGNLRKCSTSSLLEACTFRRP
As to B1, the “cAMP assay EC50 (fermentation F0191)” value turned out to be 5.9 nM.

The values above are taken from US20060205037A1 (published 2006).
